This note sets out measurements from the DeepSol protein solubility set.

The series in a line: soluble on expression in E. coli; label from the status in PepcDB or PDB records.
Regarding “MSLAILIKNRIGKGYPIYTSTVLNEKLSDEGNLTFDILENENTYDLISAVSKMWTVHNVAGPDDKRVFVITIIDRQSRGEKQYVSITARQKEIDDLMTQRIYSNVTGSFTVENYFKIVFQGSGYKYKIPIKVPSSRWENAGDGDSRYEMFKNGLERYDLEYTYDPSNKTFTLEPFVEKKTSYYISSKVNANNLKLEEDASECYTYIRGYGGFEEDESFMQGSVQVEFTHPLAKVIGKREAPPKIDGRITNIETMKREIEAIIAQSLKTSLSLDFVALREVFPSAVPRIGDLVPVRDDIIDINDSVRIIEIKTTRDAHNKIIKQDVVLGDIRRRDRYTKSVNNAATLASGLGGGSEGHHHHHH”, the “soluble on expression in E. coli” value was “soluble”.
With “SNCRSEVLEVSVEGRQVEEAMLAVLHTVLLHRSTGKFHYKKEGTYSIGTVGIQDVDCDFIDFTYVRVSSEELDRALRKVVGEFKDALRNSGGDGLGQMSLEFYQKKKSRWPFSDECIPWEVWTVKVHVVALATEQERQICREKVGEKLCEKIINIVEVMSRHEYLPKMPTQSEVDNVFDTGLRDVQPYLYKISFQITEALGTSVTTTMRRLIKDTLAL” the entry was “soluble”.
Regarding “MSQATARHSVTSSPVSTGQLEEPISRLRVPTEDELPQKLRDIHMRIRKKFGFVPNFLTALSANPGTALRIMAFYEHLFDQSNSHLSASERELIAVVTSVATGCSYCVFNHRPALAAALGDRVLADRIARNHNDVTLAPRERALADLAQKLAATPHSVGSDDFARLRAIGFSEPAILEVLEVSAFFSYGNRLTIALNVLPDPQFFVSAMAGDPLEHHHHHH”, the “soluble on expression in E. coli” value was “not soluble”.
With “MADNVAGNDRLIWIDLEMTGLDTDRDSIIEIATIVTDAQLNVLAEGPELAIAHSLETLEAMDEWNRNQHRRSGLWQRVLDSQVTHAQAEAQTVAFLGEWIRAGASPMCGNSICQDRRFLHRQMSRLERYFHYRNLDVSTIKELARRWAPAVASGFAKSSAHTALSDVRDSIDELRHYRQFMGTLGGDNGGGVQN” the entry was “soluble”; with “MALNVAPVRDTKWLTLEVCRQFQRGTCSRSDEECKFAHPPKSCQVENGRVIACFDSLKGRCSRENCKYLHPPTHLKTQLEINGRNNLIQQKTAAAMLAQQMQFMFPGTPLHPVPTFPVGPAIGTNTAISFAPYLAPVTPGVGLVPTEILPTTPVIVPGSPPVTVPGSTATQKLLRTDKLEVCREFQRGNCARGETDCRFAHPADSTMIDTSDNTVTVCMDYIKGRCMREKCKYFHPPAHLQAKIKAAQHQANQAAVAAQAAAAAATVMAFPPGALHPLPKRQALEKSNGTSAVFNPSVLHYQQALTSAQLQQHAAFIPTVPMMHSATSATVSAATTPATSVPFAATATANQIILK”, “soluble”.
Regarding “MGSDKIHHHHHHMDLRQIRTFVYIAELRSYTRAAAFLHVSQPALSRQMRLLEEELRLKLFLRHGHGVELTNEGVAFFARCRDVLSEFEQLRHDFRSTGANKAVMGLVSVGLPAPATRFATPKLLHAARKSYPGLSVRFAEGFSALLHEWLLSGSLDLAVLFGSNTPKLLTSLPVLVEDLVAISAATKTSRKKNFVNAQDLQNTPLILPHRPHILRELIDSLHLKKVEILEVDSTSLMIELARVGDGTTILPAGSAEQSIRAGHVVALPIINPTLSWQVSICYSSVRPLSVGARVVLDLMRREIAQKVTSGEWLSGRLIRPGTEMTEGLDAAP”, the “soluble on expression in E. coli” value is “not soluble”.
For “STQESTQCHRSYLLPSGNSVTLSESTAIVSHGTTGLVTWDAALYLAEWAIENPAAFTDRTILELGSGAGLTGLAICKACCPRAYIFSDCHAQVLEQLRGNVLLNGFSLEPHTPIDAGSSKVTVAQLDWDEVTASQLSAFQADVVIAADVLYCWEMTLSLVRVLKMLEDCQRKSAPDVYVAYTIRSQDTGKLFIEELDRAGIYWEEVPPHTGKLFPYEEHSAIVILKLVLTSRHGV” the value was “soluble”.
“MPRKLLEERSTGSATKWLREEEKIEKKSRADQLKIKFMQTRDNSDINSIFSEPPSEFSVLCDDDDCDKGSVVSSTLTTSIRKTFSSFRFDENQRKKGTRKRRSSEKGRICRRKVHIILARNMLRKENELYKKDAEYCQTPRAVADGCSFSTLPTI”: the “soluble on expression in E. coli” value was “not soluble”.
For “DNPINIAVPGVAQQNVSATINNGTLTRRGNLWIARPTKVGSEAIISVTAQSGGRTIQMAKTTLRVRALPDPLPYIEYKDVQGNTKRFKGGRLGKREILAAGGIKAALDDDLLEVNYTVVKFQLVFYDSMGNSIPEVSDGASFSERQKRQIQNLGKGKRFYVTEVIARGPDGIERKIPAIEVIVN” the value was “not soluble”.
For “MNLSNHFLVAMPDMEDAFFSQSVVYICKHDEDGALGIAINKPSPITMDMIFSATGKNIPFRMQHDSVMMGGPVQVERGYVVHTPIGNWQSSIGVSDNIALTSSRDVIENISREGAVDKILISIGYSSWGKGQLERELADNAWLTVPADEHILFDIPYEHRYAAAFAKLGIDPLALFSGAGHALEHHHHHH” the value was “soluble”; for “SFLSNVKYNFMRIIKYEFILNDALNQSIIRANAQYLTAAALHNLDEAVKFDMGAYKSSKDDAKITVILRISKTQLYVTAQDEDQPVLLKEMPEIPKTITGSETNLLFFWETHGTKNYFTSVAHPNLFIATKQDYWVCLAGGPPSITDFQILENQA”, “soluble”.
In the case of “GSRTVDLELELQIELLRETKRKYESVLQLGRALTAHLYSLLQTQHALGDAFADLSQKSPELQEEFGYNAETQKLLCKNGETLLGAVNFFVSSINTLVTKTMEDTLMTVKQYEAARLEYDAYRTDLEELSLGPRDAGTRGRLESAQATFQAHRDKYEKLRGDVAIKLKFLEENKIKVMHKQLLLFHNAVSAYFAGNQKQLEQTLQQFNIKLRPPGAEKPSWLEEQ”, the “soluble on expression in E. coli” value is “soluble”.
Turning to “MLFEDEVGETPGGESYATVVNSRLSELLKRDRIVALLTNPDEVELIEQIECINYKPSISGTGGFVFFVHGDRKTYKILDTDRLALWEDTAATKDVRMSEETRLRFDQNNHLQVSKAKLALDHNGFTLYENTATLARCRRHNKKVVYVLRNGHQYGHGLIMYQYVKPGAHPDPLHQTVQLMTDAWFDILPPDIRMVVYYLLKYNHADETARIVHREHSVYLSRMKAGRPPPPSTSACTS”, the “soluble on expression in E. coli” value is recorded as “not soluble”.
Consider “MPDRLQLLEERLVVNKDRFKAGSVQIGKRIETRQETVSVPLQREEVVIERHAVTDGRAVEGAVLGEGHQTMSVDLEAERANISKQAYVTEEVSVGKRAVTETQQVTETVGREVLDVNQTGDVRLEHHHHHH”, for which the “soluble on expression in E. coli” value is given as “not soluble”.
In the case of “MSLKQYLITGGTGMVGSQLVNEIKKSDSHITILTRHDQISNDKKISYVNWAKSGWEHKVPQNIDVVINLAGATLNKRWTPEYKQTLMLSRIQSTQALYELFKSRNKAPKVLFNASATGYYPPDLFMSYTEVYKTLPFDFLSDIVYQWERFAQQFEQLGTRVVIGRFGMILSNEGGALQTMKLPYKYYIGGKLGSGQQWYSWIHINDLIQAILFLINNESASGPFNLTAPIPERQNLFGYTLARAMHKPHETWAPSLAMRLILGQMSTVVLDTQKVLPNKIQALGFQFKYSNLKMALEDLIKEGHHHHHH”, the “soluble on expression in E. coli” value is listed as “soluble”.
For “MADLFDGMKRRMDALIAERFGMKVNINGTDCIVVESDFLAELGPVEGNGKNVVVFSGNVIPRRGDRVVLRGSEFTVTRIRRFNGKPQLTLEENNGGKGA” the value was “soluble”.
